From patent US20220025029A1 (Regeneron, published 2022)

Target: T1, natural Fel d1 (Indoor Biotech, #NA-FD1-2) (cat, UniProt P30438 23-92; P30440 18-109)
T1 construct: Bought natural heterodimeric glycoprotein, chains linked by disulfide bonds; also called nFel d1; nFel d 1
Experiment: SPR (Biacore 2000), mAb captured via anti-human Fc, nFel d 1 injected, 25 C

T1 sequence (P30438 other isoform, or with tags, fused parts or gaps, chain 1 of 2): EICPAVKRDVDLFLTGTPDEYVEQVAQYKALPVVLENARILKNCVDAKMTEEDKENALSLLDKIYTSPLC
T1 sequence (P30440 18-109, chain 2 of 2): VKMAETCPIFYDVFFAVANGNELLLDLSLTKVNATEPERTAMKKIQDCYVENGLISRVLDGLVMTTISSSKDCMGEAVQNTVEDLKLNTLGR

Row | 600 nM nFel d 1 Bound (RU) | Kd [nM] | koff [s⁻¹] | kon [M⁻¹ s⁻¹] | t1/2 [min] | Binder
1 | 35 | 0.25 | 0.000712 | 2.85e+06 | 16 | H4H3467D (bispecific antibody, V domains shown, Bi-specific with a common kappa light chain on both Fab arms; human IgG4 Fc by the H4H prefix) VH 1: EVQLVESGGGLAQPGGSLRLSCAASGFTFNNYAMTWVRQAPGKGLDWVSAISDSGRSTFSADSVKGRFTISRDNSKNTLYLQMDSLRAEDTALYYCAKHRNWNYPVFDYWGQGTLVTVSS VH 2: EVQLVESGGGLVKPGGSLRLSCAASGFTFRNYNINWVRQAPGKGLEWVSLISGSSSYIYYADSVKGRFTVSRDNAKNSLYLQMNSLRAEDTAVYYCARRTLSYYVMDVWGQGTTVTVSS VL: DIQLTQSPSFLSASVGDRVTITCWASQGISSYLAWYQQKPGKAPKLLIYSASTLQSGVPSRFSGSGSGTEFTLTISSLQPEDFATYYCQQLNSYPFTFGPGTKVDIK
2 | 30 | 0.347 | 0.00062 | 1.79e+06 | 19 | H4H8751D (bispecific antibody, V domains shown, Bi-specific with a common kappa light chain on both Fab arms; human IgG4 Fc by the H4H prefix) VH 1: EVQLVESGGGLVQPGGSLRLSCAASGFTFSSYAMSWVRQAPGKGLEWVSAISGRGYNADYADSVKGRFTISRDNSKNTLYLQMNSLRAEDTAVYYCAKLEYFDYWGQGTLVTVSS VH 2: EVQLVESGGGLVKPGGSLRLSCAASGFTFRNYNINWVRQAPGKGLEWVSLISGSSSYIYYADSVKGRFTVSRDNAKNSLYLQMNSLRAEDTAVYYCARRTLSYYVMDVWGQGTTVTVSS VL: DIQMTQSPSTLSASVGDRVTITCRASQSISSWLAWYQQKPGKAPKLLIYKASSLESGVPSRFSGSGSGTDFTLTISSLRPEDFATYYCQQYNSYPLTFGGGTKVEIK

Target: T1, natural Fel d1 (Indoor Biotech, …)
Experiment: SPR (Biacore), mAb captured, natural Fel d1 injected, 25 C;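 note: rate constants obtained by fitting association and dissociation phases to a one-to-one binding model, with Kd and half-life derived from those rate constants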

Row | Kd [nM] | koff [s⁻¹] | kon [M⁻¹ s⁻¹] | t1/2 [min] | Binder
3 | 0.878 | 0.000965 | 1.1e+06 | 12 | H4H2594S (antibody, human IgG4, V domains shown, human IgG4 Fc (H4H prefix)) VH: EVQLVESGGGLVKPGGSLRLSCAASGFTFSDYYMNWIRQAPGKGLEWVSYISSSGSSIYYADSVKGRFTISRDNAKNSLYLLMNSLRAEDTAVYYCARDGKYNSSPGDYWGQGTLVTVSS VL: DIQMTQSPSSLSASVGDRVTIACRASQGISNYLAWFQQKPGKAPKSLIYAASSLQSGVPSKFSGSGSGTDFTLTISSLQPEDFATYYCQQYNSYPLTFGGGTKVEIKR
4 | 0.307 | 0.00091 | 2.97e+06 | 13 | H4H2607B (antibody, human IgG4, V domains shown, human IgG4 Fc (H4H prefix)) VH: EVQLVESGGGLVKPGGSLRLSCAASGFTFSDYYMNWIRQAPGKGLEWISYLSSSGSATYYADSVKGRFTISRDNAKNSLYLQMNSLRAEDTAVYYCARDGKYNTVAGDYWGQGTTVTVSS VL: DIQLTQSPSSLSASVGDRVTITCRASQGIRNDLGWYQQKPGKAPKRLIYAASSLQSGVPSRFSGSGSGTEFTLTISSLQPEDFATYYCLQHNSYPYTFGQGTKVEIKR
5 | 3.37 | 0.000869 | 258000 | 13 | H1M1230N (antibody, V domains shown, chimeric: human variable domains, mouse constant domains (H1M prefix, mouse Fc)) VH: EVQLVESGGGLVQPGGSLRLSCTASGFIFSNFWMTWVRQAPGKGLEWVANIKQDGSETYCVDSVKGRFTISRDHAKNSLFLQMNSLRAEDTAVYYCARGAGTIYYYGMDVWGQGTTVIVSS VL: DIQMTQSPSSVSASVGDRLTITCRASQDISSWLTWYQQKPGKAPNLLIYAASGLQSGVPSRFSGSGSGTDFTLTISNLQPEDFATYYCQQANSFPLTFGQGTRLEIK
6 | 0.65 | 0.0015 | 2.31e+06 | 8 | H4H2597B (antibody, human IgG4, V domains shown, human IgG4 Fc (H4H prefix)) VH: EVQLVESGGGLVQPGGSLRLSCAVSGFTFSNYAMNWVRQAPGKGLEWVSVISDSGRSTYYADSVKGRFTISRDNSKNTLYLQMNSLRAEDTAVYFCAKRYNWNLHYFDYWGQGTTVTVSS VL: EIVLTQSPDFQSVTPKEKVTITCRASQSIGGSLHWYQQKPDQSPKLLIKYASQSFSGVPSRFSGSGSGTDFTLTINSLEAEDAATYYCLQSSSLRTFGQGTKVEIKR
7 | 0.765 | 0.000707 | 924000 | 16 | H4H2606B (antibody, human IgG4, V domains shown, human IgG4 Fc (H4H prefix)) VH: EVQLVESGGGLVKPGGSLRLSCAASGFTFSDYYMNWIRQAPGKGLEWVSYISSSGNSIYYADSVKGRFTISRDNAKNSLFLQMSSLRAEDTAVYYCARDGRYNDRRRGYYWGQGTLVTVSS VL: EIVMTQSPDFQSVTPKEKVTITCRASQSIGSSLHWYQQKPDQSPKLLIKYASQSFSGVPSRFSGSGSGTDFTLTINSLEAEDAATYYCLQSSSLRTFGQGTKVEIKR
8 | 1.4 | 0.000353 | 253000 | 33 | H2M1233N (antibody, mouse IgG2, V domains shown, chimeric: human variable domains, mouse IgG2 Fc (H2M prefix)) VH: QVVLVESGGGVVQPGRSLRLSCAASGFTFSSYGMHWVRQAPGKGLEWVAVIWYDGSNKYYVDSVKGRFTISRDNSNNTIYLQMNSLRAEDTAVYYCARSLIPVAGTDPIFGYWGQGTLVTVSS VL: DIQMTQSPSTLSASVGDRVTITCRASQSVSSWLAWYQQKPGKAPKLLIFKASGLESGVPFRFSGSGSGTEFTLTISSLQPDDFATYYCQQYNTYSPTFGQGTKVEIK
9 | 3.14 | 0.000604 | 192000 | 19 | H2M1242N (antibody, mouse IgG2, V domains shown, chimeric: human variable domains, mouse IgG2 Fc (H2M prefix)) VH: EVQLVESGGGLVRPGGSLRLSCAASGFTFTSYAMNWVRQAPGKGLEWVSSISSYSSYIYIADSVKGRFTLSRDNAKNSLYLQMHSLRPEDTAVYFCAREGYSAYSYFDFWGRGTLVTVSS VL: DIQMTQSPSTLSASVGDRVTITCRASQSVISWLAWYQQKPGKAPKLLIHRASSLESGVPSRFSGSGSGTEFTLTISGLQPDDFATYYCQQYNTYFPTFGQGTKVEVK
10 | 0.982 | 0.000276 | 281000 | 42 | H2M1237N (antibody, mouse IgG2, V domains shown, chimeric: human variable domains, mouse IgG2 Fc (H2M prefix)) VH: QVVLVESGGGVVQPGRSLRLSCAASGFTFSSYGMHWVRQAPGKGLEWVAVIWYDGSIKYYADSVKGRFTISRDNSNNTIYLQMNSLRAEDTAVYYCARALIPVAGTDPIFGYWGQGTLVTVSS VL: DIQMTQSPSTLSASVGDRVTITCRASQSVSSWLAWYQQKPGKAPKLLIFKTSGLESGVPFRFSGSGSGTEFTLTISSLQPDDFATYYCQQYNTYSPTFGQGTKVEIK
11 | 4.55 | 0.00142 | 312000 | 8 | H2M1236N (antibody, mouse IgG2, V domains shown, chimeric: human variable domains, mouse IgG2 Fc (H2M prefix)) VH: QVQLQESGPGLVKPSETLSLTCTVSGGSISNYYWSWIRQPPGKGLEWIGYIYYSGRTNYNPSLKSRVTISVDTSKNQFSLKLRSVTAADTAVYYCARHRITRTADSFDYWGQGTLVTVSS VL: DIQMTQSPSSLSASVGDRVTITCQASQDITNYLNWYQQKPGKAPKLLIYDASNLETGVPSRFSGSGSGTDFTFTISSLQPEDVATFYCHQYGDLPYTFGQGTKLEIK
12 | 18.3 | 0.00679 | 371000 | 2 | H1M1234N (antibody, V domains shown, chimeric: human variable domains, mouse constant domains (H1M prefix, mouse Fc)) VH: QVQLQQSGPGLVKSSQTLSLTCAISGDSVSSNSVAWNWIRQSPSRGLEWLGRTYYRSKWYNDYAVSVKSRININPDTSKNHFSLQLNSVTPEDTAVYFCARAWNWYYLDYWGQGTLVTVSS VL: not shown
13 | 35.4 | 0.00713 | 202000 | 2 | H4H2797P (antibody, human IgG4, V domains shown, human IgG4 Fc (H4H prefix)) VH: QVQLVESGGGVVLPGRSLRLSCAASGFTFSSYLMYWVRQAPGKGLEWVAVIWYDGSNKFYGDSVKGRFTISRDNSKNTLYLQMNSLRAEDTAVYYCARDNGNSGYEDSWNAFDIWGQGTMVTVSS VL: DIQMTQSPSSLSASVGDRVTITCRASQDIYNYLAWFQQKPGKAPKSLIYAASSLQTGVPSQFSGSGSGTDFTLTISSLQPEDFATYYCQQYNNYPFTFGPGTKVDIK
14 | 3.63 | 0.000662 | 182000 | 17 | H1M1241N (antibody, V domains shown, chimeric: human variable domains, mouse constant domains (H1M prefix, mouse Fc)) VH: EVQLVESGGGLVKPGGSLRLSCAASGFTFSSYSMNWVRQAPGKGLEWVSSISSRSSYIYYADSVKGRFTISRDNAKNSLYLQMNSLRAEDTAVYYCARDHIVVVPGASYYYYGMDVWGQGTTVTVSS VL: DIQMTQSPSSLSASVGDRVTITCRASQGIRNDLGWYQQKPGKAPKRLISAASSLQSGVPSRFSGSGSGTEFTLTISSLQPEDFATYYCLQHNSYPLTFGGGTKVEIK
